Assay results from patent US20250263754.

Molecular target: T1, HRBP (1-81), amino acids 1 to 81 of the Nogo-B receptor (NgBR) family protein HRBP from Hevea brasiliensis
T1 chain: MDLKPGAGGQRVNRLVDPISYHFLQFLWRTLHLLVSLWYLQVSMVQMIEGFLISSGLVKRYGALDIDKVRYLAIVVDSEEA

B1: HRT1-linker-LDAP1 fusion protein (protein)
chain: GFLALLNVLTYCYELGVKYATIYAFSIDNFRRKPHEVQYVMDLMLEKIEGMIMEESIINAYDICVRFVGNLKLLSEPVKTAADKIMRATANNSKCVLLIAVCYTSTDEIVHAVEESSELNSNEVCNNQELEEANATGSGTVIQIENMESYSGIKLVDLEKNTYINPYPDVLIRTSGETRLSNYLLWQTTNCILYSPHALWPEIGLRHVVWAVINFQRHYSYLEKHKEYLKTGNSADGGGGSGGSGGSGGGSTQGMAEADAKLQNDTVQEDEVTTLKYLEFVQIAAVHAVVIVSSIYDFAKDNSGPLKPGVQTVEGTVKTVMSPVYEKIQDIPLELLKFADRKVDGFVQEVDRHVPVLVKQASSQAFSAAHRAPEVARSIKSELNRVGVVDTATEMTKAAYATLEPTAKDLYIRYEPVAEHYAVSAWRSLNRLPLFSEVAHIVVPTAAYWTDKYNKGVRYMEVKGFGVASYMPLVPTERIAKVFGEREEEIVLEMSPMTTSEVVN
Enzymatic activity (prenyl chain elongation, radioactivity of [4-14C]IPP incorporated, dpm): 900 dpm

B2: LDAP1-linker-HRT1 fusion protein (protein)
chain: MAEADAKLQNDTVQEDEVTTLKYLEFVQIAAVHAVVIVSSIYDFAKDNSGPLKPGVQTVEGTVKTVMSPVYEKIQDIPLELLKFADRKVDGFVQEVDRHVPVLVKQASSQAFSAAHRAPEVARSIKSELNRVGVVDTATEMTKAAYATLEPTAKDLYIRYEPVAEHYAVSAWRSLNRLPLFSEVAHIVVPTAAYWTDKYNKGVRYMEVKGFGVASYMPLVPTERIAKVFGEREEEIVLEMSPMTTSEVVNTGNSADGGGGSGGSGGSGGGSTQGGFLALLNVLTYCYELGVKYATIYAFSIDNFRRKPHEVQYVMDLMLEKIEGMIMEESIINAYDICVRFVGNLKLLSEPVKTAADKIMRATANNSKCVLLIAVCYTSTDEIVHAVEESSELNSNEVCNNQELEEANATGSGTVIQIENMESYSGIKLVDLEKNTYINPYPDVLIRTSGETRLSNYLLWQTTNCILYSPHALWPEIGLRHVVWAVINFQRHYSYLEKHKEYLK
Enzymatic activity (prenyl chain elongation, radioactivity of [4-14C]IPP incorporated, dpm): 837 dpm
